# Columns and labels:
# Assay type in all cases: biochemical
# [1] = Validation of generalist properties: oxidation of loratadine by lyophilized P450-BM3 variant, UPLC-MS; conditions: [Loratadine] = 1 mM; for TON: TON = [substrate]*% conversion/[P450]
# Protocol: (§1) For the production of lyophilized protein powders, LB agar plates supplemented with chloramphenicol (30 μg/mL) were streaked with E. coli containing a desired B. megaterium P450-BM3 variant in an IPTG-inducible vector. The plates were grown at 37° C. for 16 hrs before single clones were selected to inoculate a 15 mL Falcon™ tube (Fisher) containing TB media (3 mL) supplemented with chloramphenicol (30 μg/mL). The tube was shaken at 200 rpm, 30° C., and 85% humidity for 20-24 h to grow the cultures to saturation. Then, 2.5 mL of the overnight culture was used to inoculate sterile 1 L flasks containing TB medium (250 mL) supplemented with chloramphenicol (30 μg/mL), trace element solution (as described above), and 0.05 g/L ammonium iron (III) citrate. After being shaken at 250 rpm, 30° C., and 85% humidity to an OD600 of 0.8-1.2, P450 expression was induced by addition of IPTG (500 uM) and the heme precursor 5-aminolevulinic acid (5-ALA) to a final concentration of 500 uM. The cultures were grown for additional 20-24 hours and centrifuged in pre-weighed 250 mL centrifuge bottles for 20 minutes at 4000 rpm, 4° C. The supernatants were discarded, and the centrifuge bottles containing cell pellets were weighed. The pellets were resuspended in 50 mM potassium phosphate buffer with 2 mM DTT, pH 8.0 (5 mL of buffer per gram of cell pellet). The cells were lysed using a microfluidizer homogenizer, and the suspensions of cells and lysate were collected in sterile 50 mL centrifuge tubes. The samples were centrifuged for 30 minutes at 10,000 rpm, 4° C. The clarified lysate was collected into a plastic petri plate and frozen at −80° C. prior to lyophilization. The enzyme-containing lysates were lyophilized using standard methods known in the art.
# (§2) Enzyme stocks (˜12 μM) were prepared by dissolving ˜20 mg of each enzyme in 100 mM potassium phosphate buffer, pH 8.0 (1 mL). The concentration of each enzyme stock solution was determined by the UV-visible absorption spectroscopy (after centrifugation to remove particulates) and diluted to standardize at 12 μM heme protein. Substrate solutions were prepared by dissolving each substrate in DMSO to reach a final concentration of 20 mM or 40 mM. Reaction mix (235 μL) followed by enzyme solution (50 μL) was added to the plates. The substrate stock solution was added to the enzyme solutions (15 μL at the two different concentrations). Each reaction contained 100 mM potassium phosphate, 1.0 mM NADP+, 25 mM glucose, 0.5 mg/mL glucose dehydrogenase, 5% DMSO and substrate at 1 or 2 mM. Loratadine, imatinib, and gefitinib (See, FIG. 1) were selected as substrates in addition to diclofenac to validate improved BM3 variants. The reactions were shaken at 450 rpm at 30° C. over 24 hours. All reactions were diluted with acetonitrile to a final concentration of 0.5 mM substrate. The plates were then centrifuged at 3,000 g for 1 hour at 20° C. The supernatant was diluted 1:1 with acetonitrile, filtered using a 0.4 micron filter, and analyzed by UPLC-MS.
# (§3) For UPLC-MS analysis, the quenched and filtered reactions were transferred to 96-well HTP plates for analysis by UPLC on a Waters Acquity H-class system equipped with an autosampler. 1 uL of quenched sample was injected onto an Acquity UPLC HSS T3 column, 100 Å, (1.8 um; 2.1×100 mm). The column was eluted at a constant flow rate of 0.6 mL/min; conditions with solvent A (0.05% trifluoroacetic acid v/v, in H2O) and solvent B (0.05% trifluoroacetic acid v/v, in acetonitrile) used to elute the products of the reaction were: 0-2 min, A/B 95:5; 2-2.9 min, A/B 5:95; 2.9-3 min, A/B 95:5; 3-3.5 min, A/B 95:5. Column eluent was monitored by PDA (200-600 nm) prior to MS analysis in positive ESI mode (desolvation temperature 350° C., 3.25 kV spray voltage, cone voltage 25V). The column eluent was diverted to waste for the first 0.7 minutes of the run. For the remainder of the LC run, both MS (m/z 95-600 scan range) and MS/MS were collected. […]
# [2] = Validation of generalist properties: oxidation of diclofenac by lyophilized P450-BM3 variant, UPLC-MS; conditions: [Diclofenac] = 1 mM; for TON: TON = [substrate]*% conversion/[P450]
# Protocol: as §1, §2, §3
# [3] = Validation of generalist properties: oxidation of imatinib by lyophilized P450-BM3 variant, UPLC-MS; conditions: [Imatinib] = 1 mM; for TON: TON = [substrate]*% conversion/[P450]
# Protocol: as §1, §2, §3
# [4] = Validation of generalist properties: oxidation of gefitinib by lyophilized P450-BM3 variant, UPLC-MS; conditions: [Gefitinib] = 1 mM; for TON: TON = [substrate]*% conversion/[P450]
# Protocol: as §1, §2, §3
# [5] = fold improvement over parent MCYP-1.2-A05
# [6] = fold improvement over parent MCYP-P1.2-B02
Molecule,% Conv. [1],TON [1],"FIOPC (A05) [1, 5]",% Conv. [2],TON [2],"FIOPC (A05) [2, 5]",% Conv. [3],TON [3],"FIOPC (A05) [3, 5]",% Conv. [4],TON [4],"FIOPC (A05) [4, 5]","FIOPC (B02) [1, 6]","FIOPC (B02) [2, 6]","FIOPC (B02) [3, 6]","FIOPC (B02) [4, 6]"
"Variant 8: P450-BM3 variant of SEQ ID NO: 2: D118R; L219Y; K236H; S353T; N579T; T582A; E624D; D727S (protein, P450_BM3, L219Y; K236H; S353T; N579T; T582A; E624D; D727S) MLMKQASAIPQPKTYGPLKNLPHLEKEQLSQSLWRIADELGPIFRFDFPGVSSVFVSGHNLVAEVCDEERFDKSIEGALEKVRAFSGDGLATSWTHEPNWRKAHNILMPTFSQRAMKRYHEKMVDIATQLIQKWSRLNPNEEIDVADDMTRLTLDTIGLCGFNYRFNSFYRDQPHPFITSMVRALDEAMNKLQRANPDDPAYDENKRQFQEDIKVMNDYVDSIIAERRANGDQDEHDLLARMLNVEDPETGEKLDDENIRFQIITFLIAGHETTSGLLSFAIYCLLTHPEKLKKAQEEADRVLTDDTPEYKQIQQLKYIRMVLNETLRLYPTAPAFSLYAKEDTVLGGEYPITKGQPVTVLIPKLHRDQNAWGPDAEDFRPERFEDPSSIPHHAYKPFGNGQRACIGMQFALQEATMVLGLVLKHFELINHTGYELKIKEALTIKPDDFKITVKPRKTAAINVQRKEQAEQSAKKVRKKAENAHNTPLLVLYGSNMGTAEGTARDLADIAMSKGFAPQVATLDSHAGNLPREGAVLIVTASYNGHPPDNAKQFVDWLDQASADEVKGVRYSVFGCGDKTWAATYQKVPAFIDETLAAKGAENIADRGEADASDDFEGTYEEWRDHMWSDVAAYFNLDIENSEDNKSTLSLQFVDSAADMPLAKMHGAFSTNVVASKELQQPGSARSTRHLEIELPKEASYQEGDHLGVIPRNYEGIVNRVTARFGLSASQQIRLEAEEEKLAHLPLAKTVSVEELLQYVELQDPVTRTQLRAMAAKTVCPPHKVELEALLEKQAYKEQVLAKRLTMLELLEKYPACEMKFSEFIALLPSIRPRYYSISSSPRVDEKQASITVSVVSGEAWSGYGEYKGIASNYLAELQEGDTITCFISTPQSEFTLPKDPETPLIMVGPGTGVAPFRGFVQARKQLKEQGQSLGEAHLYFGCRSPHEDYLYQEELENAQSEGIITLHTAFSRMPNQPKTYVQHVMEQDGKKLIELLDQGAHFYICGDGSQMAPAVEATLMKSYADVHQVSEADARLWLQQLEEKGRYAKDVWAG",++ (5.01-10.00),‡‡ (1001-5000),**** (10.01-15.00),+ (0-5.00),‡‡ (1001-5000),**** (10.01-15.00),++++ (15.01-20.00),‡‡‡ (5001-10000),* (0.0-3.0),+ (0-5.00),‡ (0-1000),* (0.0-3.0),–,–,–,–
"SEQ ID NO: 8: P450-BM3 parental backbone from the commercially available MCYP panel (MCYP-0343; Codexis) (protein, P450_BM3) MTIKEMPQPKTFGELKNLPLLNTDKPVQALMKIADELGEIFKFEAPGRVTRYLSSQRLIKEACDESRFDKNLSQALKFARDFAGDGLFTSWTHEKNWKKAHNILLPSFSQQAMKGYHAMMVDIAVQLVQKWERLNADEYIEVPEDMTRLTLDTIGLCGFNYRFNSFYRDQPHPFIISMIRALDEVMNKLQRANPDDPAYDENKRQFQEDIKVMNDLVDKIIADRKASGEQSDDLLTQMLNGKDPETGEPLDDGNISYQIITFLIAGHETTSGLLSFALYFLVKNPHVLQKVAEEATRVLVDPVPSYKQVKQLKYVGMVLNEALRLWPTAPAFSLYAKEDTVLGGEYPLEKGDEVMVLIPQLHRDKTIWGDDVEEFRPERFENPSAIPQHAFKPFGNGQRACIGQQFALHEATLVLGMMLKHFDFEDHTNYELDIKETLTLKPEGFVVKAKSKKIPLGGIPSPSTEQSAKKVRKKAENAHNTPLLVLYGSNMGTAEGTARDLADIAMSKGFAPQVATLDSHAGNLPREGAVLIVTASYNGHPPDNAKQFVDWLDQASADEVKGVRYSVFGCGDKNWATTYQKVPAFIDETLAAKGAENIADRGEADASDDFEGTYEEWREHMWSDVAAYFNLDIENSEDNKSTLSLQFVDSAADMPLAKMHGAFSTNVVASKELQQPGSARSTRHLEIELPKEASYQEGDHLGVIPRNYEGIVNRVTARFGLDASQQIRLEAEEEKLAHLPLAKTVSVEELLQYVELQDPVTRTQLRAMAAKTVCPPHKVELEALLEKQAYKEQVLAKRLTMLELLEKYPACEMKFSEFIALLPSIRPRYYSISSSPRVDEKQASITVSVVSGEAWSGYGEYKGIASNYLAELQEGDTITCFISTPQSEFTLPKDPETPLIMVGPGTGVAPFRGFVQARKQLKEQGQSLGEAHLYFGCRSPHEDYLYQEELENAQSEGIITLHTAFSRMPNQPKTYVQHVMEQDGKKLIELLDQGAHFYICGDGSQMAPAVEATLMKSYADVHQVSEADARLWLQQLEEKGRYAKDVWAG",++ (5.01-10.00),‡‡ (1001-5000),–,++ (5.01-10.00),‡‡ (1001-5000),–,++++ (15.01-20.00),‡‡‡‡ (10000-50000),–,+ (0-5.00),‡ (0-1000),–,–,–,–,–
"Variant 9: P450-BM3 variant of SEQ ID NO: 8: Y52F; D232H; E349K; E619D; D722S; R762H (protein, P450_BM3, D232H; E349K; E619D; D722S; R762H) MTIKEMPQPKTFGELKNLPLLNTDKPVQALMKIADELGEIFKFEAPGRVTRFLSSQRLIKEACDESRFDKNLSQALKFARDFAGDGLFTSWTHEKNWKKAHNILLPSFSQQAMKGYHAMMVDIAVQLVQKWERLNADEYIEVPEDMTRLTLDTIGLCGFNYRFNSFYRDQPHPFIISMIRALDEVMNKLQRANPDDPAYDENKRQFQEDIKVMNDLVDKIIADRKASGEQSHDLLTQMLNGKDPETGEPLDDGNISYQIITFLIAGHETTSGLLSFALYFLVKNPHVLQKVAEEATRVLVDPVPSYKQVKQLKYVGMVLNEALRLWPTAPAFSLYAKEDTVLGGEYPLKKGDEVMVLIPQLHRDKTIWGDDVEEFRPERFENPSAIPQHAFKPFGNGQRACIGQQFALHEATLVLGMMLKHFDFEDHTNYELDIKETLTLKPEGFVVKAKSKKIPLGGIPSPSTEQSAKKVRKKAENAHNTPLLVLYGSNMGTAEGTARDLADIAMSKGFAPQVATLDSHAGNLPREGAVLIVTASYNGHPPDNAKQFVDWLDQASADEVKGVRYSVFGCGDKNWATTYQKVPAFIDETLAAKGAENIADRGEADASDDFEGTYEEWRDHMWSDVAAYFNLDIENSEDNKSTLSLQFVDSAADMPLAKMHGAFSTNVVASKELQQPGSARSTRHLEIELPKEASYQEGDHLGVIPRNYEGIVNRVTARFGLSASQQIRLEAEEEKLAHLPLAKTVSVEELLQYVELQDPVTHTQLRAMAAKTVCPPHKVELEALLEKQAYKEQVLAKRLTMLELLEKYPACEMKFSEFIALLPSIRPRYYSISSSPRVDEKQASITVSVVSGEAWSGYGEYKGIASNYLAELQEGDTITCFISTPQSEFTLPKDPETPLIMVGPGTGVAPFRGFVQARKQLKEQGQSLGEAHLYFGCRSPHEDYLYQEELENAQSEGIITLHTAFSRMPNQPKTYVQHVMEQDGKKLIELLDQGAHFYICGDGSQMAPAVEATLMKSYADVHQVSEADARLWLQQLEEKGRYAKDVWAG",++ (5.01-10.00),‡‡ (1001-5000),–,++++ (15.01-20.00),‡‡‡ (5001-10000),–,++++ (15.01-20.00),‡‡‡‡ (10000-50000),–,+ (0-5.00),‡ (0-1000),–,* (0.0-3.0),* (0.0-3.0),* (0.0-3.0),* (0.0-3.0)

# Source: US10704030B2, “P450-BM3 variants with improved activity” (Codexis, Inc., priority 2015, dated 2020)
